Where no end group is shown, it is not given here.

For orientation: stoichiometry N means the number of molecules, sites or subunits per partner or assembly.

Data set [1] deals with the molecule itself. Kind of data set: Bis-Tris SDS-PAGE; 12% NuPAGE Bis-Tris gel, MES SDS running buffer, room temperature; 200 uM TMD-5 peptide in Laemmli sample buffer overnight, heated at 90 C for 7 min; Coomassie stain; pentamidine to peptide ratios 0 to 20.
Data set [2] deals with the molecule itself. Description: coumarin fluorescence dequenching (self-quenching) assay; 100 nM coumarin labeled TMD-5 in 50 mM HEPES pH 7.4 with 150 uM C14 betaine micelles, room temperature overnight; excitation 360 nm, emission 430 nm; with or without 64 uM pentamidine.

B1: LMP-1 TMD-5 peptide KKKK-TMD-5-KKKK (peptide)
peptide: KKKKWQLLAFFLAFFLDLILLIIALYLKKKK
notes: lysine flank added to increase the solubility of the peptide; transmembrane domain 5 (TMD-5) of latent membrane protein 1 (LMP-1) of Epstein-Barr virus; source: synthetic peptide, purified by reverse phase HPLC
Regarding B1, the “stoichiometry N” value in data set [1] was determined as 3.

B2: coumarin labeled LMP-1 TMD-5 peptide (peptide)
peptide: {7‑hydroxycoumarin‑3‑carboxylic acid}-GGGPGWQLLAFFLAFFLDLILLIIALYLGPGG
notes: flank between the coumarin label and TMD-5; transmembrane domain 5 (TMD-5) of latent membrane protein 1 (LMP-1) of Epstein-Barr virus; C-terminal flank; also called coumarin labeled TMD-5; source: synthetic peptide, labeled with coumarin on the resin, purified by reverse phase HPLC
In the case of B2, the binding result in data set [2] is given as “binds”.

For the origin of these results see article PMC3477141, “Repositioning Antimicrobial Agent Pentamidine as a Disruptor of the Lateral Interactions of Transmembrane Domain 5 of EBV Latent Membrane Protein 1” (PLoS ONE, 2012).
